Target: T1, TACI-Fc fusion protein (transmembrane activator and CAML-interactor fused to Fc) (Homo sapiens (Human), UniProt O14836 1-159)
T1 construct: also called TACI-FC protein; Full-length TACI-Fc; not shown: Fc part from the vector pC4-Fc
T1 sequence: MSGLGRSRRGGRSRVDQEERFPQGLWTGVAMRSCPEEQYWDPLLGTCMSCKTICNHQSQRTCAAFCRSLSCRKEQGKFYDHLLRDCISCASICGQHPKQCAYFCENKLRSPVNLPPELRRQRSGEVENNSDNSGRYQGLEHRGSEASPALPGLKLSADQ
Assay: BIAcore (SPR), TACI-Fc amine-coupled to a CM5 chip, TNF-epsilon in flow
Method: BIAcore analysis was performed essentially as follows. TACI-FC protein was immobilized to the BIAcore sensor chip (CM5 chip) via amine groups using N-ethyl-N′-(dimethlaminopropyl)carbodiimide/N-hydroxysuccinimide chemistry. Various dilutions of TNF-epsilon or other TNF ligands were flowed over the receptor-derivatized flow cells at a rate of 15 microliters per minute for a total volume of 50 microliters. The amount of bound protein was determined during washing of the flow cell with HBS buffer (10 mM HEPES, pH 7.4, 150 mM NaCl, 3.4 mM EDTA, 0.005% Surfactant P20). Binding specificity of TNF-epsilon to TACI was determined by competition with soluble competitor. The flow cell surface was regenerated by displacing bound protein by washing with 20 microliters of 10 mM glycine-HCl, pH=2.3.

Kd: 6 nM
B1: TNF-epsilon (purified, trimeric form isolated by size exclusion chromatography) (ligand)
chain: AVLTQKQKNDSDVTEVMWQPALRRGRGLQAQGYGVRIQDAGVYLLYSQVLFQDVTFTMGQVVSREGQGRQETLFRCIRSMPSHPDRAYNSCYSAGVFHLHQGDILSVIIPRARAKLNLSPHGTFLGFVKL
